Experimental data: paper PMC5114850

Biological target: recombinant human calmodulin (human), P0DP23
Assay: ITC
Conditions: remark: other sources report otherwise

Kd: 1680 nM
dH: -7.3 kcal/mol
stoichiometry N: 0.99 sites
Binder: Ac-SQSHPVMKAFCGLLLQSS-NH2 [CaMBP1 peptide of zebrafish STRA6]
